From patent US9296786B2, “Shortened secreted polypeptides” (TWO TO BIOTECH LTD., priority 2009, dated 2016)

Key:
[1] = IPGTT in mice treated with streptozotocyn (STZ), after 4-5 weeks of peptide treatment; assay type: in vivo, C57B1/6 mice; settings: STZ-treated C57B1/6 male mice; PRT8 100 μg/mice; sbPRT8 20, 100 or 300 μg/mice; 4 or 5 weeks of treatment; sbPRT8 compared with PRT8
Excerpt: In the following experiments, a sbPRT8 peptide blocked with an acetyl moiety at the N-terminal end and an amide moiety (NH2) at the C-terminal end has been employed. The effect of sbPRT8 administration on glucose levels was examined and compared to the effect obtained with PRT8 in mice treated with streptozocin (STZ). As known in the art, STZ is a chemical compound that is particularly toxic to the insulin-producing beta cells of the pancreas in mammals. It is used in medicine for treating certain cancers of the Islets of Langerhans and used in medical research to produce an animal model for Type 1 diabetes as well as Type 2 diabetes.
(§1) C57B1/6 males mice were purchased from Harlan Laboratories Ltd., Jerusalem, Israel, After 7 days of rest, mice were IP injected with 50 mg/kg STZ for 4 days. Five days after STZ injection, mice were treated as follows: • Group A (control)—100 μg/mice of PRT8 (control) • Group B (treatment)—20 μg/mice of sbPRT8 (treatment 1) • Group C (control)—100 μg/mice of sbPRT8 (treatment 2)
After 5 weeks of treatment mice were starved for food only for 12 h and then were IP injected with […] of glucose solution (IPGTT). The level of glucose in mice blood was measured with Accucheck glucometer (Roche) at t=0, 15, 30, 60, 90 and 120 minutes following glucose injection.
as §1, with “Jerusalem, Israel.” for “Jerusalem, Israel,”, “B (treatment)—100” for “B (treatment)—20”, “C (control)—300” for “C (control)—100”
After 4 weeks of treatment mice were starved for food only for 12 h and then were IP injected with […] of glucose solution (IPGTT). The level of glucose in mice blood was measured with Accucheck glucometer (Roche) at t=0, 15, 30, 60, 90 and 120 minutes following glucose injection.

[2] = Effect of PRT6 administration on blood serum testosterone level (R&D Systems Testosterone Immunoassay); assay type: in vivo, Balb/C mice
Experimental: Two groups of Balb/C mice were used: • 3-4 week-old male Balb/C—Negative control for testosterone—18 mice • 7-8 week-old male Balb/C mice—18 mice
Each group was divided into 3 sub-groups (6 mice each). Each group was injected every day for a 4 day-period with 200 μl of one of the following: • 4% DMSO in double-distilled water (DDW) • 0.5 μg/kg of PRT6 (diluted in DDW) • 5 μg/kg of PRT6 (diluted in DDW)
After 4 days, blood serum was extracted from the mice and tested for testosterone levels. Testosterone measurement was done using the R&D Systems Testosterone Immunoassay (R&D Systems Catalog Number KGE010). This assay is based on the competitive binding technique. A monoclonal antibody specific for testosterone binds to the goat anti-mouse antibody coated onto the microplate. Following a wash to remove excess monoclonal antibody, testosterone present in the sample competes with a fixed amount of horseradish peroxidase (HRP)-labeled testosterone for sites on the monoclonal antibody. This is followed by another wash to remove excess conjugate and unbound sample. A substrate solution is added to the wells to determine the bound enzyme activity. Color development is stopped, and absorbance is read at 450 nm. The intensity of the color is inversely proportional to the concentration of testosterone in the sample.

p53 = assay: Induction of p53 expression by PRT7 (data not shown)
insulin receptors = assay: Levels of insulin receptors in skeletal muscle of mice treated with PRT5; assay type: in vivo; settings: data not shown
[3] = Effect of PRT5 administration on glucose levels after glucose injection in starved mice; assay type: in vivo, C57B1 mice; settings: starting 2 days and up to 4 days after injection; 2 mg/kg glucose after overnight starvation
Experimental: The mice were divided into 4 groups. The first group was starved and checked for blood glucose levels (using an Accu-Chek® Performa device, Roche Diagnostics) one day after injection; the second group—two days after injection, the third group—three days after injection and the fourth group—four days after injection. Starvation was done overnight (the night before glucose injection), and the next day 2 mg/kg of glucose was injected to each mouse. A time course analysis of glucose levels was performed with glucose levels checked at t=0, 30, 90, 120, 150 and 240 minutes.

[4] = Effect of PRT8 administration on glucose levels after glucose injection in starved mice; assay type: in vivo, C57B1 mice; settings: 1 μg/kg or 10 μg/kg PRT8
Experimental: All the mice were injected with PRT8 (or saline) on day 1. The first group was starved on day 2 and checked for blood glucose levels (using an Accu-Chek®Performa device, Roche Diagnostics) on day three. The second group was starved and checked for blood glucose levels three days after injection. Starvation was done overnight (the night before glucose injection), and the next day 2 mg/kg of glucose was injected to each mouse. A time course analysis of glucose levels was performed with glucose levels checked at t=0, 30, 60 and 120 minutes following glucose injection.

In the case of “sbPRT8: shortened C-terminal fragment of PRT8, sequence KPETCPGLLV SLYPA (KPETCPGLLVSLYPA; listed as Homo sapiens)”, the “reduction of blood glucose level (IPGTT)” value [1] is reported as “very significant improvement”.

With “PRT8 N-ter: PRT8 fragment, sequence SHLFGSFAWN FLLSS (SHLFGSFAWNFLLSS; listed as Homo sapiens)” the “reduction of blood glucose level (IPGTT)” value [1] was “no significant blood glucose reduction”.

With “PRT6: novel chemokine-like secreted polypeptide from human cDNA libraries, amino acid sequence SEQ. ID. NO. 2 (MPPFSVGLVVVVNVVCLMLYESTTILRLYGIILFMRDLKLEVEDAKITIALALRNS; listed as Homo sapiens)” the “testosterone levels in blood serum” value ([2]; 0.5 μg/kg or 5 μg/kg PRT6 daily for 4 days, male Balb/C) was “significant increase” and the “effect on testosterone levels of 5 μg/kg compared with 0.5 μg/kg” value ([2]; 5 μg/kg vs 0.5 μg/kg PRT6, daily for 4 days) was “much more pronounced”.

In the case of “PRT8 C-ter: PRT8 fragment, sequence LLVSLYPA (listed as Homo sapiens)”, the “reduction of blood glucose level (IPGTT)” value [1] is reported as “no significant blood glucose reduction”.

B1: PRT7: novel chemokine-like secreted polypeptide from human cDNA libraries, amino acid sequence SEQ. ID. NO. 3 (protein, listed as Homo sapiens)
chain: MGMIVPPSLAAAGGASTTPRLHALRLTSLLHQHLDLCLHPSPLPTPPSAPCLSGLVPPDSSLSVLDTLQV
For B1, the “expression of p53” value (p53) was “can induce the expression of p53”.

B2: PRT5: novel chemokine-like secreted polypeptide from human cDNA libraries, amino acid sequence SEQ. ID. NO. 1 (protein, listed as Homo sapiens)
chain: MKPMERWWSRALFTTCPVGPSGCAAGLLWPRNTDARSPLHSQTLWVCSWAALAQKHRCTVTPAQPAP
With B2 the “levels of insulin receptors in skeletal muscle” value (insulin receptors) was “capable of increasing the levels of insulin receptors” and the “glucose levels compared with mice administered saline” value [3] was “significantly lower”.

B3: PRT8: novel chemokine-like secreted polypeptide from human cDNA libraries, amino acid sequence SEQ. ID. NO. 4; full length PRT8 peptide (protein, listed as Homo sapiens)
chain: MLVFLKLWPQCLFFALTFFLRNCIYFKDFLSHLFGSFAWNFLLSSRSMDPTSCWTAPIWRSHRPLNSAPVSESPNYPLFTWSLKPETCPGLLVSLYPA
For B3, the “reduction of blood glucose level (IPGTT)” value [1] was “significant reduction”, the “glucose levels compared with mice administered saline” value ([4]; starting 2 days after administration, 2 mg/kg glucose after overnight starvation) was “significantly lower” and the “glucose-lowering effect three days following injection compared with two days” value ([4]; three days following PRT8 injection) was “more evident”.
